Laboratory results from paper PMC10665349.
Several values for one entry are separate records, joined by “and”; a condition that tells them apart may be missing. Equal entries are not always repeated. Where two headings read alike, the source gives them in different places.

Legend:
[1] = biological target: GST fused to the C-terminal residues 200-294 of HMPV P (strain CAN97-83) (human metapneumovirus strain CAN97-83)
[2] = biological target: HMPV nucleoprotein N (strain NL/00/1), assembled and RNA-bound (N-RNA) (human metapneumovirus strain NL/00/1) (UniProt Q6WBA1); assay: cryo-EM structure; single-particle cryo-EM of recombinant N-RNA (1.0 mg/ml) in 25 mM Tris-HCl pH 8.0, 250 mM NaCl; 2D classification and 3D reconstruction of 10-mer, 11-mer and spiral particles, local refinement of an N-RNA dimer
[3] = biological target: HMPV nucleoprotein N (strain NL/00/1), assembled and RNA-bound (N-RNA) (human metapneumovirus strain NL/00/1) (UniProt Q6WBA1); assay: as above; remark: listed apart in the source

| Substance | HMPV polymerase activity, minigenome assay (Firefly luciferase) in BSRT7/5 cells, compared to wild-type; N and full-length P of strain NL99-1 from pCite plasmids (% of wild-type) [1] | stoichiometry N [2] | stoichiometry N [3] |
| --- | --- | --- | --- |
| HMPV N (strain CAN97-83) with a C-terminal 6xHis tag, L111E (natural protein) | 10 |  |  |
| HMPV N (strain NL99-1, plasmid pN) L111A (natural protein) | < 50 |  |  |
| HMPV N (strain NL99-1, plasmid pN) triple mutant with alanines in positions 100, 103 and 111 (natural protein) | 30 |  |  |
| HMPV nucleoprotein N (strain NL/00/1), assembled and RNA-bound (N-RNA) (from UniProt Q6WBA1 1-394) (natural protein) |  | 10 protomers and 11 protomers and 12 protomers | > 12 protomers |
